Substitutions are numbered along the chain they refer to. Names may count otherwise.
T1: CREBL1 (Homo sapiens, UniProt Q99941)
T1 construct: expressed in transfected cells; host or cells: HEK293T
T1 sequence (Q99941 1-703): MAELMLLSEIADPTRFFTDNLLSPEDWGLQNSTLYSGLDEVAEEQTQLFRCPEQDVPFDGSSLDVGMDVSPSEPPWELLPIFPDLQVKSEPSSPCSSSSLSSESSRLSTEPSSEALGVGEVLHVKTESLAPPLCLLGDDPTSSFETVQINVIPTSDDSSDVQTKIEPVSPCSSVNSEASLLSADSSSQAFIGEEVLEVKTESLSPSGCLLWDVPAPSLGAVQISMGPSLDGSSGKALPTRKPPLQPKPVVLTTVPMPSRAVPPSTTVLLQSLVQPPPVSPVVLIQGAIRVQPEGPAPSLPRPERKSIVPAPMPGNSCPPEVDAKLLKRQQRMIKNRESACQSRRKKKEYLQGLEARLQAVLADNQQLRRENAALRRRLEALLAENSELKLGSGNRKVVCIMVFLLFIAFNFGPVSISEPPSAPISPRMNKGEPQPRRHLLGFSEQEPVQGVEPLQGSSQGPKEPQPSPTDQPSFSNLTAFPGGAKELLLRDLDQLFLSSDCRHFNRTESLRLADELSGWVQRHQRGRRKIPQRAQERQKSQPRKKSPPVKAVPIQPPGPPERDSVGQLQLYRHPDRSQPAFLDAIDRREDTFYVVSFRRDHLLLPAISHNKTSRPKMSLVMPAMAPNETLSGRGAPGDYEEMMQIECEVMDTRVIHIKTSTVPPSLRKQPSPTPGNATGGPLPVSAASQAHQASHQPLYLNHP

T2: ATF6 (Homo sapiens, UniProt P18850)
T2 construct: expressed in transfected cells; host or cells: HEK293T
T2 sequence (P18850 1-670): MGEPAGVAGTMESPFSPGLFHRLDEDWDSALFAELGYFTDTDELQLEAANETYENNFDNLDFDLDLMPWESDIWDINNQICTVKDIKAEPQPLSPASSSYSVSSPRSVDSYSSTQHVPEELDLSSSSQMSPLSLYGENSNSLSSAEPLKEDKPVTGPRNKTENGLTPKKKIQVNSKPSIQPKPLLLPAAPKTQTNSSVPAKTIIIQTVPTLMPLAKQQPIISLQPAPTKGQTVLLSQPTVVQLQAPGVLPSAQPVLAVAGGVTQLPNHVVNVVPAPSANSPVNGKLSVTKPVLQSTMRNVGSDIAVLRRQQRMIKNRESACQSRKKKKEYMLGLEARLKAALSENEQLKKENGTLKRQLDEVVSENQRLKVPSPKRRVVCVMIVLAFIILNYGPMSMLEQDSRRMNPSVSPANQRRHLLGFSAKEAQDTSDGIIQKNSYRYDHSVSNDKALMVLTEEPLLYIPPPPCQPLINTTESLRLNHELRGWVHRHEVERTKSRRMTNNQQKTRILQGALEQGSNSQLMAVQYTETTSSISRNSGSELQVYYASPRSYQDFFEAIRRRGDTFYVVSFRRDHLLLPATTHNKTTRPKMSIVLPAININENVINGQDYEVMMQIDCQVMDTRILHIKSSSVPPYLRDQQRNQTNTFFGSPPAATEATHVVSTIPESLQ

T3: HNF-4α (Homo sapiens, UniProt P41235)
T3 construct: expressed in transfected cells; host or cells: HEK293T
T3 sequence (P41235 10-474): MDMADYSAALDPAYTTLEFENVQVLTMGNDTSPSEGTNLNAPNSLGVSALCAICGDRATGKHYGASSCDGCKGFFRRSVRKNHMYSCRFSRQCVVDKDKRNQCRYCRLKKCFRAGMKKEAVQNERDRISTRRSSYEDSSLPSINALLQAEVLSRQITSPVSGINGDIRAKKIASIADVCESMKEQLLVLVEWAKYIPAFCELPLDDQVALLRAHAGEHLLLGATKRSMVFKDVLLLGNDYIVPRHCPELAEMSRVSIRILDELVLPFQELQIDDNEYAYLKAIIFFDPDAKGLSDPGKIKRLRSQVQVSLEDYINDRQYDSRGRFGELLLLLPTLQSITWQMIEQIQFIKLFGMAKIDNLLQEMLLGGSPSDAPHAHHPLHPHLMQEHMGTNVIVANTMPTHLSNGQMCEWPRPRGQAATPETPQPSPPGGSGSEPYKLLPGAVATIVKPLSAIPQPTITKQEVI

B1: mature HtrA2 (ΔAVPS): SEQ ID NO: 8; lacks the N-terminal four amino acid residues (AVPS) of mature HtrA2 (protein)
chain: MPPPASPRSQYNFIADVVEKTAPAVVYIEILDRHPFLGREVPISNGSGFVVAADGLIVTNAHVVADRRRVRVRLLSGDTYEAVVTAVDPVADIATLRIQTKEPLPTLPLGRSADVRQGEFVVAMGSPFALQNTITSGIVSSAQRPARDLGLPQTNVEYIQTDAAIDFGNSGGPLVNLDGEVIGVNTMKVTAGISFAIPSDRLREFLHRGEKKNSSSGISGSQRRYIGVMMLTLSPSILAELQLREPSFPDVQHGVLIHKVILGSPAHRAGLRPGDVILAIGEQMVQNAEDVYEAVRTQSQLAVQIRRGRETLTLYVTPEVTE
modifications: Polypeptide consisting of the same amino acid sequence of SEQ ID NO4 wherein the amino acid residues from the 2nd to the 5th are deleted; mature HtrA2(delta AVPS)
B2: mature HtrA2 (S306A): SEQ ID NO: 6; HtrA2 mutant with substitution of the 174th serine residue of mature HtrA2 with alanine (protein)
chain: MAVPSPPPASPRSQYNFIADVVEKTAPAVVYIEILDRHPFLGREVPISNGSGFVVAADGLIVTNAHVVADRRRVRVRLLSGDTYEAVVTAVDPVADIATLRIQTKEPLPTLPLGRSADVRQGEFVVAMGSPFALQNTITSGIVSSAQRPARDLGLPQTNVEYIQTDAAIDFGNAGGPLVNLDGEVIGVNTMKVTAGISFAIPSDRLREFLHRGEKKNSSSGISGSQRRYIGVMMLTLSPSILAELQLREPSFPDVQHGVLIHKVILGSPAHRAGLRPGDVILAIGEQMVQNAEDVYEAVRTQSQLAVQIRRGRETLTLYVTPEVTE
modifications: Polypeptide consisting of the same amino acid sequence of SEQ ID NO4 wherein the 174th amino acid residue is substituted by Ala; mature HtrA2(S306A)
notes: HtrA2 mutant with substitution of the 174th serine residue of mature HtrA2 with alanine
B3: mature HtrA2 (GVPS): SEQ ID NO: 10; substitution of alanine among the N-terminal four residues of mature HtrA2 with glycine (protein)
chain: B2 chain with A2G, A174S
modifications: Polypeptide consisting of the same amino acid sequence of SEQ ID NO4 wherein the 2nd amino acid residue is substituted by Gly; mature HtrA2(GVPS)
notes: substitution of alanine among the N-terminal four residues of mature HtrA2 with glycine

Key:
[1] = tested on: casein; test: Casein zymography and protease assay with casein sodium; format: biochemical; conditions: for protease activity using casein sodium as a substrate: HtrA2 types expressed in a cultured cell
Method: Determination of the activity of mature HtrA2 and mature HtrA2 (S306A) was carried out with casein zymography and with a protease assay with casein sodium. Casein zymography was carried out according to the protocol (Invitrogen). More concretely, mature HtrA2 and mature HtrA2 (S306A) were mixed under non-reductive condition with equivalent volume of 2×SDS sample buffer, left to stand at room temperature for 10 min, followed by separation with 4-16% zymogram (Blue casein) gel (Zymogram Gel, Invitrogen). After completion of electrophoresis, they were renatured with 2.5% Triton X-100, and then subjected to a degradation reaction of casein in the developing buffer at 37= C. for overnight.
Meanwhile, a protease assay using casein sodium as an substrate was carried out in such that mature HtrA2 or mature HtrA2 (S306A) was mixed with casein sodium in a reaction buffer (150 mM NaCl, 50 mM Tris-HCl (pH 7.5)) so as to the concentration of the former might become 200 μg/ml and the concentration of the latter might become 400 μg/ml, and incubated at 37° C. for reactions. A portion of the reaction solution was sampled at three hours and overnight after initiation of the reaction, mixed with equivalent volume of 2×SDS sample buffer followed by boiling, and then subjected to SDS-PAGE. After that, the degradation of casein sodium was detected by Coomassie Brilliant Blue (CBB) staining.
The enzyme activity of the various types of HtrA2 each of which was expressed in a cultured cell was determined by the protease assay using casein sodium as a substrate (see Example 2).

[2] = target: T1, CREBL1; test: Intracellular protease assay, co-expression with CREBL1 in HEK293T cells; format: cell-based; conditions: 48 hours
Method: (§1) HEK293T cells were cultured to 1.5×10^5 cells/10 cm Dish. Next day, the expression plasmid of CREBL1 or ATF6 was transfected into HEK293T cells together with the expression plasmid of various types of HtrA2 using FuGene 6 (Roche). Each of the expression plasmid of various HtrA2 at 1 μg/Dish was added in combination with CREBL1 expression plasmid or ATF6 expression plasmid at 1 μg/Dish. Forty eight hours later, the cells in which the various types of HtrA2 were co-expressed with CREBL1 or ATF6 were added with 200 μl of lysis buffer B and an equivalent volume of 2×SDS sample buffer (containing 0.1% β-mercaptoethanol), and then subjected to sonication followed by boiling to use as a test sample.
(§2) Expression of CREBL1 and ATF6 and the degradation of these proteins were detected by western blotting using 10 μl of the test sample thus obtained. Anti-c-Myc (9E10) antibody was used as a primary antibody for detection, and horseradish peroxidase (HRP) conjugated anti-mouse IgG antibody (Cell Signaling) was used as a secondary antibody. Detection was carried out using ECL Western Blotting Detection System.

[3] = target: T2, ATF6; test: Intracellular protease assay, co-expression with ATF6 in HEK293T cells; format: cell-based; conditions: 48 hours
Method: as §1, §2

[4] = target: T3, HNF-4α; test: Intracellular protease assay, co-expression with HNF-4α in HEK293T cells; format: cell-based; conditions: 48 hours
Method: as §1, with “cells/6” for “cells/10”, “HNF-4α” for “CREBL1 or ATF6”, “HNF-4α” for “CREBL1 expression plasmid or ATF6”
Expression of HNF-4α and the degradation of HNF-4α were detected by western blotting using 10 μl of the test sample thus obtained. Anti-FLAG antibody (Sigma) was used as a primary antibody for detection, and horseradish peroxidase (HRP) labeled anti-mouse IgG antibody (Cell Signaling) was used as a secondary antibody. Detection was carried out using ECL Western Blotting Detection System.

Row | Molecule | protease activity using casein sodium as a substrate [1] | degradation of CREBL1 in cells (band by western blotting) [2] | degradation of ATF6 in cells (band by western blotting) [3] | degradation of HNF-4α in cells (band by western blotting) [4] | degradation of casein ([1]; casein zymography and casein sodium protease assay, 37° C., E. coli-expressed His-tagged protein)
1 | B1 | active type having protease activity | the band of CREBL1 was reduced significantly | the band of ATF6 was reduced significantly | the band of HNF-4α was reduced significantly | –
2 | B2 | – | – | – | – | degradation of casein was not observed
3 | B3 | active type having protease activity | the band of CREBL1 was reduced significantly | the band of ATF6 was reduced significantly | the band of HNF-4α was reduced significantly | –
